The target of this assay is T1, OB-R (Homo sapiens, UniProt P48357).
T1 construct: The cytoplasmic domain and full-length human OB-R was cloned by PCR; expressed in transfected cells; host or cells: COS-7
T1 sequence (P48357 22-1165): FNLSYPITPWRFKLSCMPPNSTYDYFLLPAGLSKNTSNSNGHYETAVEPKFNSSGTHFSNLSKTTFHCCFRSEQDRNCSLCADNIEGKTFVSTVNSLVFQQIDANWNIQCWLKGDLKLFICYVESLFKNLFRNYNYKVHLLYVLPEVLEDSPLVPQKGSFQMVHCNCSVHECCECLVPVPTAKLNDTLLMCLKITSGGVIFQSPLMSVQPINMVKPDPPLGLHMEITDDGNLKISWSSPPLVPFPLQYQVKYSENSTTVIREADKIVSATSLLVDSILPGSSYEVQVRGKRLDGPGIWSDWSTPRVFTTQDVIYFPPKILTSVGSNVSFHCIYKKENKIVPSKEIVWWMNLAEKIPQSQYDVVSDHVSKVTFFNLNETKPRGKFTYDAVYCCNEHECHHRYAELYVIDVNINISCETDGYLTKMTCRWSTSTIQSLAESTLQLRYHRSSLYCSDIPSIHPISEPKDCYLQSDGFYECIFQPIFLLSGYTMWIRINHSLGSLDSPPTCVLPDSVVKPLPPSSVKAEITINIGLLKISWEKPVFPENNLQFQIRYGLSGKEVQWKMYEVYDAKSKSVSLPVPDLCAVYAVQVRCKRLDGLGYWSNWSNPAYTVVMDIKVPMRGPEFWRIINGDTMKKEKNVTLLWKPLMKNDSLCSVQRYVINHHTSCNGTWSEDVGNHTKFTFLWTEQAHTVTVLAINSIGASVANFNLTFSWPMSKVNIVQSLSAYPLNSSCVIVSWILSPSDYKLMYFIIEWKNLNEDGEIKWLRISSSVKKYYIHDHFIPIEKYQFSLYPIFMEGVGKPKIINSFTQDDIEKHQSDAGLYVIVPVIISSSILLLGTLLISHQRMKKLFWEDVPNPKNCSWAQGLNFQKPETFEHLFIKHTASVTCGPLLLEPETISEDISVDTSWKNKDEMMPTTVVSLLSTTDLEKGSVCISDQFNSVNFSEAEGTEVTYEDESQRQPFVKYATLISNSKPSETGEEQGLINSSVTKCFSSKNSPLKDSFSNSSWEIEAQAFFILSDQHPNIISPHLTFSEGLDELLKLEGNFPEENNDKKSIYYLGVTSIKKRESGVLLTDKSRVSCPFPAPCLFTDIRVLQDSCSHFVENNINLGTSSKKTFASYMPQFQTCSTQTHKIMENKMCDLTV
Nature of the assay: Luciferase reporter gene assay (3(G3)-Cy6-LUC), leptin stimulation of COS cells expressing wild type OB-R. The class given is cell-based. Conditions: 100 ng/ml leptin for 24 hours, stimulated vs non-stimulated. The method, then:
The cytoplasmic domain and full-length human OB-R was cloned by PCR using human fetal liver and adipocyte cDNA (Clontech) and cloned into the expression vectors pCMX and pMT21. Chimeric receptors were constructed by fusing the extracellular domain and transmembrane domain of TrkC (amino acids 1 to 458) to the cytoplasmic domain of OB-R (amino acids 865-1165). A triple myc epitope tag was added at the C-terminus of all OB-R constructs (18). Truncation and point mutant constructs were generated by PCR and the sequences of all constructs were verified. Expression constructs were transfected into COS-7 cells using lipofectamine (GIBCO-BRL); 36-48 hours after transfection, cells were starved for either 2 hour,s for chimeric receptors or overnight for full-length receptors prior to stimulation.
Expression constructs (1 μg) for OB-R, OB-RY1141F, OB-RY986F, OB-RY1078, 1079F, and OB-RY986, 1141F were co-transfected with 1 μg of 3(G3)-Cy6-LUC and 0.1 μg of pCMX.LacZ into COS-7 cells (6-well dishes) using lipofectamine. The day after transfection, media was changed to serum-free OptiMEM (GIBCO-BRL) and then treated with 100 ng/ml murine leptin (PeproTech) or human leptin (R&D Systems) for 24 hours. […] Luciferase and β-galactosidase activities were measured in cell lysates (30) and luciferase activity was normalized to β-galactosidase activity to control for transfection differences. […]

Consider “leptin: the product of the obese gene, secreted by adipocytes; ligand of OB-R”, for which the “induction of luciferase activity” value worked out at 6 fold.
